B1: rabbit monoclonal anti-mouse Id1, clone #BCH-1/#37-2 (antibody, V domains shown)
VH: QSVEESGGRLVTPGTPLTLTCKVSGFDINSYAMDWFRQAPGKGLEWIGMMSTRGNTYYTSWAKGRFTISKTSSTTVDLKMTSLTTEDTATYFCARGGLWGPGTLVTVSS
VL: RVLTQTASPVSAAVGGTVTINCQASQSVYNGNRLGWYQLKPGQSPKELIHDASTLASGVPSRFRGSGSGTQFTLTINDVQCDDAATYYCVGSYACSTGDCNVFGGGTEVVVK
notes: Rabbit IgG from hybridoma, Protein G purified; also called m Id1 MoAb 37-2; Rabbit Monoclonal Anti-Mouse Id1 (#37-2)

What was measured:
[1] = target: Human Id1: Histidine (human) (UniProt P41134); assay: sandwich ELISA, 5-3-coated wells, human Id1:His 50.0 ng/ml, detected with rabbit polyclonal B-5133-HRP
[2] = target: T1, Mouse Id3: Histidine (mouse, UniProt P41133 1-119, limits assumed); assay: ELISA, coated antigen, Ab 0.000 ug/ml (blank, diluent only)
T1 construct: E. coli fusion protein (vector pGW07); also called m-Id3: His; not shown: His-tag
T1 sequence (looked up): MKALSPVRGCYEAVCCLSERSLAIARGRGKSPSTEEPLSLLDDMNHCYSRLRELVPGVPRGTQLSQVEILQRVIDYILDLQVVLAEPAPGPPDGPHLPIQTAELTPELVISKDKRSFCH

[3] = target: T2, Mouse Id1: Histidine (mouse, UniProt P20067-2 1-148); assay: as above
T2 construct: E. coli fusion protein (vector pGW07); also called m-Id1-His; not shown: His-tag
T2 sequence: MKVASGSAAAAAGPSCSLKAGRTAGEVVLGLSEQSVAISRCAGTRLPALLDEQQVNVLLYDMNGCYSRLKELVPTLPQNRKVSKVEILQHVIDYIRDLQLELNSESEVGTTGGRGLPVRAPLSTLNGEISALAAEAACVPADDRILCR

[4] = target: T2, Mouse Id1: Histidine; assay: ELISA, coated antigen; reference mouse Id1
[5] = target: T3, human Id1 protein (human, UniProt P41134 1-155); assay: SPR (BIACORE 2000), antibody immobilized on CM5 chip, Id-1 as analyte, 1:1 Langmuir model
T3 construct: No tag stated; Western blots: endogenous in HeLa and other human cancer cell extracts; IHC: endogenous in human mammary tumor tissue
T3 sequence: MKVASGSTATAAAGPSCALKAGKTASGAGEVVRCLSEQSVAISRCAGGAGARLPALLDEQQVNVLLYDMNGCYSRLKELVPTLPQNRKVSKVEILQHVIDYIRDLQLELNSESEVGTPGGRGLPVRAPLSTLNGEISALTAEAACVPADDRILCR
Protocol: (§1) Antibodies were immobilized on CM5 sensor chips. All SPR (surface plasmon resonance) assays were carried out in a BIACORE 2000 instrument. A mouse monoclonal antibody was used as reference labeled at the 2nd channel (Fc2) of the chip. BCH-1#37-2 was immobilized on the 4th (Fc4) channel. Final conjugation of antibodies on chip surface was 1878 RU for BCH-1#37-2. Mouse Id-1 and human Id-1 were applied as mobile analytes. The binding assays were carried out in HBS-P buffer (10 mM HEPES, pH 7.4, containing 150 mM sodium chloride, 0.005% surfactant P-20 detergent and 0.12% glycerol). Kinetics were determined with 8 different analyte concentrations ranging from […] to 573 nM. For analyses, 125 μl of analyte were injected (Kinject protocol) at 30 μl/min and the dissociation lasted for 240 seconds at the same flow rate. The surface was regenerated by washing with 50 μl solution of 100 mM glycine and 100 mM of HCl, pH 1.81, at 60 μl/min and the extra cleaning protocol was followed. The kinetic analyses of sensograms were based on the Langmuir (1:1) binding model. Both association rate constant and dissociation rate constants for the interaction of mouse Id-1 and human Id-1 with the immobilized antibodies were determined from the analysis of sensograms using the Biaevaluation software, version 3.0. […]

[6] = target: T4, mouse Id1 protein (mouse, UniProt P20067-2 1-148); assay: as above
T4 construct: No tag stated; Western blots: expressed in transfected HeLa cells (whole cell extract on SDS gel); IHC: endogenous in mouse mammary tumor tissue
T4 sequence: T2 sequence
Protocol: as §1

[7] = target: T5, Human Id2: Histidine (human, UniProt Q02363 1-134, limits assumed); assay: ELISA, coated antigen, Ab 2.50 ug/ml
T5 construct: E. coli fusion protein (vector pGW07); also called h-Id2: His; not shown: His-tag
T5 sequence (looked up): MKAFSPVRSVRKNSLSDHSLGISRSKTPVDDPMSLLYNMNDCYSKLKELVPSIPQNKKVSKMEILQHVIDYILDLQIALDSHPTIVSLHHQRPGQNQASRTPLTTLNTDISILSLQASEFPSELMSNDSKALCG
Protocol: (§2) Incubate plates at 2-8° C. overnight (16-24 hours). [0145] 11. Shake off the BSA solution. [0146] 12. Dispense 250 μL of 2.5% sucrose solution into each well. [0147] 13. Incubate plates at 2-8° C. for 4 hours. [0148] 14. Shake off sucrose solution. [0149] 15. Dry in vacuum at room temperature overnight. Screening Method [0150] 1. Dispense 100 μL of antibody diluent, diluted rabbit polyclonal anti-Id1 into appropriate wells. […] 2. Incubate at room temperature with mechanical shaking at 750 rpm for 90 minutes. [0152] 3. Remove the incubation mixture by flicking plate content into an appropriate waste container, followed by rinsing the wells 5 times with distilled water. […] 4. Strike the wells sharply onto absorbent paper or paper towels to remove all residual water droplets. [0154] 5. Dispense 100 μL of Goat Anti-Rabbit IgG-HRP Conjugate Reagent into each well. Gently mix for 5 seconds. [0155] 6. Incubate at room temperature with mechanical shaking at 750 rpm for 90 minutes. […] 7. Repeat procedures 3 and 4. [0157] 8. Dispense 100 μL of TMB Reagent into each well. Gently mix for 5 seconds. [0158] 9. Incubate at room temperature with mechanical shaking at 750 rpm for 20 minutes. [0159] 10. Add 100 μL of Stop Solution (1N HCl) into each well. [0160] 11. Gently mix for 10 seconds to ensure a complete mixing. […] 12. Read optical density (absorbance) at 450 nm. Results from this assay were used to select the rabbit sera with the highest antibodies titer that selectively reacts with mouse Id1 or human Id1 or both.
(§3) A comparison was carried out between the reactivity of the rabbit monoclonal anti-mouse Id1, clone #BCH-1/#37-2, of this invention and the mouse monoclonal anti-mouse/human Id1 from BD Pharmingen with the following antigens prepared in Example 5: mouse Id1:His, human Id1:His, human Id2:His, human Id3:His, and GST. These antigens and protein were used to coat the wells.
(§4) Materials and methods were those described in Example 9 except (a) Pharmingen's mouse monoclonal anti-mouse Id1 was used in addition to the rabbit monoclonal anti-mouse Id1 (Example 10), and (b) goat anti-mouse IgG-HRP conjugate was used to process the wells treated with the Pharmingen monoclonal antibody and polyclonal goat anti-rabbit IgG-HRP conjugate was used to process wells treated with rabbit monoclonal anti-mouse Id1.

[8] = target: T2, Mouse Id1: Histidine; assay: ELISA, coated antigen, Ab 2.50 ug/ml
Protocol: as §2, §3, §4

| Molecule | A450 [1] [A450] | A450 [2] [A450] | A450 [3] [A450] | Cross-reactivity (%) [4] [%] | Ka [5] [M⁻¹] | Ka [6] [M⁻¹] | A450 [7] [A450] | A450 [8] [A450] |
| --- | --- | --- | --- | --- | --- | --- | --- | --- |
| rabbit monoclonal anti-human Id1, clone #BCH-2/#5-3 (antibody) | 3.15 | 0.058 | 0.046 |  |  |  |  |  |
| rabbit monoclonal anti-mouse/human Id1, clone #BCH-1/#195-14 (antibody) |  | 0.05 | 0.045 | 100 |  |  |  |  |
| B1 |  |  |  |  | 2.9e+09 | 2.9e+11 | 0.07 | 3.16 |

Source: US20060286609A1 (BIOCHECK, published 2006)
